Test results reported in PMC2120604.

B1: GST-lamin B1 tail (residues 391-588) (domain or fragment)
chain: LSPSPSSRVTVSRASSSRSVRTTRGKRKRVDVEESEASSSVSISHSASATGNVCIEEIDVDGKFIRLKNTSEQDQPMGGWEMIRKIGDTSVSYKYTSRYVLKAGQTVTVWAANAGVTASPPTDLIWKNQNSWGTGEDVKVILKNSQGEEVAQRSTVFKTTIPEEEEEEEEEPIGVAVEEERFHQQGAPRASNKSCAIM
modifications: 125I-labelled (Iodogen) where used as the radiolabelled ligand
B2: GST-lamin B2 tail (residues 382-596) (domain or fragment)
chain: LSPSPSSRITISRATSSSSSSSGVGMSVGQGRGKRRRLETEDTSGSPSRASRVSSGSRLAQQTVATGVVNIDEVDPEGRFVRLKNSSDKDQSLGNWRIKRQVLEGEDIAYKFTPKYVLRAGQTVTVWAAGAGATHSPPSTLVWKSQTNWGPGESFRTALVSADGEEVAVKAAKHSSVQGRENGEEEEEEEAEFGEEDLFHQQGDPRTTSRGCRLM
modifications: 125I-labelled (Iodogen) where used as the radiolabelled ligand

Molecular target: rat liver chromatin fragments (rat (endogenous in liver))
Assay: radioligand binding

Kd | Molecule
300 nM | GST-lamin C tail (residues 389-572) (from UniProt P02545-2 389-572) (domain or fragment)
120 nM | B1
230 nM | B2
